Test: Pharmacokinetic study of GDNF-TPN (human GDNF ELISA)
Format: in vivo, healthy CD-1 mice
Conditions: after i.v. injection
Protocol: Healthy CD-1 mice were randomly allocated into three treatment groups and received a single i. v. injection of GDNF-TPN, Free GDNF or saline at a matched dose of 15 mg GDNF/kg. At 0.5, 1, 2, 4, 6 and 24 hours after injection, whole blood was collected in heparinized tubes from ketamine anesthetized mice by cardiac puncture. Following perfusion with ice-cold saline via the left ventricle, the brains and organs were harvested, rinsed in PBS, weighted, snap-frozen and stored at −80° C. for further analysis. The mouse tissues were homogenized with RIPA buffer containing protease inhibitors and the GDNF was assayed using Human GDNF Elisa kit (Abcam, CA) under manufacture's protocol. […] Free GDNF was quickly eliminated from the blood within 2 hours after injection.

B1: glial cell line-derived neurotrophic factor (protein, UniProt P39905 78-211, looked up)
Glial cell line-derived …: SPDKQMAVLPRRERNRQAAAANPENSRGKGRRGQRGKNRGCVLTAIHLNVTDLGLGYETKEELIFRYCSGSCDAAETTYDKILKNLSRNRRLVSDKVGQACCRPIAFDDDLSFLDDNLVYHILRKHSAKRCGCI
notes: Human GDNF, free protein solution used as comparator
  Time to elimination from the blood: ≤ 2 h

Source: US12678457B2, “Blood-brain barrier-penetrating nanotheranostics for acute and chronic neurodegenerative diseases and the like” (THE GOVERNING COUNCIL OF THE UNIVERSITY OF TORONTO, priority 2020, dated 2026)
